Assay results reported in US20220096654A1, “PYRROLOBENZODIAZEPINE-ANTIBODY CONJUGATES AND USES THEREOF” (ADC THERAPEUTICS SA, priority 2020, published 2022).

Tests used:
293T (CD45-) = test: Cell viability assay 72 h (PrestoBlue), 293T; format: cell-based, human; conditions: drug-linker B1
Experimental: OCIM1, Jurkat and Nalm6 cells were seeded at 0.5×10^5/mL were cultured for 72 hours in presence of Mab or ADC or medium (in triplicate wells) in wells of flat bottom 96-well plates. 293T cells were seeded at 9.3×10^3 cells per well in flat bottom 96-well plates and allowed to adhere the plate for up to 24 hours. 293T cells were subsequently cultured with Mab or ADC or medium (in triplicate wells) for 72 hours. PrestoBlue® Cell viability Reagent (Thermo Fisher Scientific) was added to each and incubated for up to 1.5 hours. Fluorescence intensity from each well was detected using a FLUOstar OPTIMA microplate reader (BMG Labtech). Data points are mean±s.d. for representative experiments.

CD34+ PBSC (CD45+) = test: Clonogenic assay, CD34+ PBSC treated 2 h with Mab or ADC; format: cell-based, human; conditions: PBD ADCs in human IgG1-AAA format
Experimental: Cryopreserved purified CD34+ cells from mobilized peripheral blood from three normal donors were thawed and cultured at […] complete medium (RPMI 1640 plus 10% fetal calf serum) in presence of Mab, ADC or medium alone for 2 hours in 96-well U-bottom plates. Cells were mixed and 40 uL was transferred to 2 ml of StemMACS HSC-CFU complete with Epo (Miltenyi Biotech) and mixed well. 0.5 ml (250 cells) was plated into triplicate into wells of a 24-well plate. Colonies were enumerated between 10-14 days. Data is mean of three donors±s.d.

[1] = Dosimetry in non-humanised NSG mice; format: in vivo; conditions: for Comment (survival / culling): non-humanised NSG mice, monitored 2 weeks
Experimental: For dosimetry in non-humanised NSG mice, adult NSG mice were injected intravenously via the tail vein with unconjugated Mab or ADC up to 5 mg/kg. Mice regularly monitored over a period of 2 weeks for any signs of morbidity. Mice were culled if rapid weight loss (>15%) occurred over a period of 2 days.

[2] = Dosimetry in humanised NSG mice; format: in vivo; conditions: 3 mg/kg, culled for weight loss >15%
Experimental: For dosimetry in humanised NSG mice, adult female NSG mice were sublethally irradiated with 2.5 Gy on the day before transplantation. Cryopreserved purified CD34+ cells from mobilized peripheral blood from a normal donor were thawed and 0.5×10^6 cells in PBS were injected intravenously into the tail vein. Human engraftment (human CD45+ cells) in the blood of all mice was determined by flow cytometry at 12 weeks post-transplant. Mice were assigned to treatment cohorts so that the median human engraftment in the blood for between cohorts was as similar as possible. Mice were treated with 0.3 mg/kg or 3 mg/kg Mab or ADC. Blood samples were taken after 7 days and analysed by flow cytometry. The bone marrow, blood and spleen of mice were analysed at 14 days post-treatment.

B1: YTH54.12-hIgG1-AAA-PBD: YTH54.12 in human IgG1-AAA format conjugated to PBD drug-linker B1 (conjugate)
VH: EVQLVESGGGLVQPGGSMKLSCAASGFTFSDYYMAWVRQAPKKGLEWVASMSFAGSSTYYGDSVKGRFTISRDNAKTTLYLQMNSLRSEDTATYYCARMYTTDYYLYWYFDFWGPGTMVTVSS
VL: DVQMTQSPSYLAASPGESVSISCKASKSISNYLAWYQQKPGEANKILIYSGSTLQSGTPSRFSGSGSGTDFSLTIRNLEPEDFAVYYCQQYDEKPLTFGSGTKLEIK
EC50 (293T (CD45-)): 16.5 nM
inhibition of colony formation (CD34+ PBSC (CD45+)): dose-dependent inhibition of colony formation
Comment (survival / culling) ([1]; 0.5 mg/kg i.v.): All alive at day 14
Comment (survival / culling) ([1]; 5 mg/kg i.v.): All alive at day 14
mice culled due to weight loss ([1]; human (hIgG1-AAA) format, ≥3 mg/kg, humanised and non-humanised mice): 1 of the 6
Comment (survival / culling) [2]: 1 culled on day 9
